Experiment: label from the status in PepcDB records

Sequence | protein production
MDVDTAFLNSTMDEPIYVKQPPGFVNERNPDYVWELYGGMYGLKQAPLLWNEHINNTLKKIGFCRHEGEHGLYFRSTSDGPIYIAVYVDDLLVAAPSPKIYDRVKQELTKLYSMKDLGKVDKFLGLNIHQSSNGDITLSLQDYIAKAASESEINTFKLTQTPLCNSKPLFETTSPHLKDITPYQSIVGQLLFCANTGRPDISYPVSLLSRFLREPRAIHLESARRVLRYLYTTRSMCLKYRSGSQLALTVYCDASHGAIHDLPHSTGGYVTLLAGAPVTWSSKKLKGVIPVPSTEAEYITASETVMEI | failed
MRDTTWHVPEDDLRAYVQGELAPPRLWSADTHLAACERCRAALAEAGDPVALDAAWERLDAELDAPRPGMFESLLVRAGVADHTARLLTATPVLRRSWLGAVAFLLVMTVGIVLTVDSPALFLALAPLLPLAGVALSYGPVLDPTYEMAVVAPLHGFRLLLIRTLAVLATGLLLNGLATLALPGYGLRALAWLLPALALTGTGLALTPRLGPVLAPALTGGAWIGLLLVAQARTHETLAPFTMAGQGAAAVVAALAAGLLYRTRDRFDSVAARLPFAHLPGGGAV | failed
MDIFQLQGLFLVLSAILGYFLHNRLSVRIVSFVNNWINLPLIFLVTYLQRGFEVSDAKIFLTSVIYNFLMFVIVLYLTREIEPFSRGSVLINSIFMNTINLPFSILLAFRGNYEISATVAVAMATLRLPIVMIIFTYLNKGISVIHNTTNNSIIRTNLSRYLPVITFLIGGSLHYVVGSVINVDIVNTINLILILIVLYEFGYQIRRVIGEMRIKDVTSKPYMIIYISRILISPILIFLILISLGITSKIIIEQVMVTAIMAPAITNVVWARVYGFGTEIIVKSTLILTPISTIIAIIFLILY | failed
MSLKTGRSNIIAFIVPDQNPFFTEVLTEISHECQKHHLHVAVASSEENEDKQQDLIETFVSQNVSAIILVPVKSKFQMKREWLKIPIMTLDRELESTSLPSITVDNEEAAYIATKRVLESTCKEVGLLLANPNISTTIGRKNGYNKAISEFDLNVNPSLIHYSDQQLGTNAQIYSGYEATKTLLSKGIKGIVATNHLLLLGALQAIKESEKEIKKDVIIVGFDDSYWNEIYTPKLTVISQPVKEMGQVAAKMIYKLIKGKDVTSIKLSTKLIIRESCSFNEGHHHHHH | not failed
MIKAVKKRKEGNMLKDLNTNQGLKPWRVESVFYCIVIVLIFIGAFKIAEAVFKPLAISIVLGFLVYPVYTFLARFKVPKFLIVFIIFFLLFSFSYLIFSFVYYSVTVLMKQLPYYQNQLAFIMKDVLSRYKVDSSVINDVNFSGYIYPFLTRAYNEIIGFTSSLVVVFLLLYFLLSEIHVFEMKLDKAFKKPISTRFIGALDTINNQIGKYLGIKILVSCLTGILVFIGLTLFGQDFPLVWAVLSFVFNFIPSIGSILAVFFIVITSLIQFYPNLNIVLYVFIYNTSIQMLIGNILEPKMQGKRLDISPFLLLCFLFFWGWLWGIVGLLISYPFTVIVKVIVDNVSWLKSFSVFLGGSEILSNISHISSKDKEI | failed
MGCAEEKKTDVRWATFNIRYDNPQDSLNNWQYRKDRVCQFIKDHELDIVGMQEVLHNQFQDLRAGLPEYDGIGVGRDDGKTAGEYAPLFYRKDKYEVLDSNTFWLAENPDSVGMMGWDAVCVRIATWAKFKDKATGKIFMAVNTHFDHVGEEARRQSALLIIRKIKEIVGERPAVVTGDFNVTDASDAYETITTNEFVMKDAYKTAARVTGVDYTFHDFARIPAEDCEKIDFIFVTPQVLVKSCEIPAEVPEALLSDHNPQLADLELEHHHHHH | failed
MKEVSAAPKITNVKAAILGFQHLLAMYSGDVLVPLLIGAALHFSQEQLTYLVSIDIFMCGIATFLQLKRTPLTGIGLPVVLGCAVQAVNPLIQIGKTYGLGTMYGSIIGAGIFIFLIAGLFSKIKNLFPPVVTGSLITIIGFTLIPVAFQNLGGGDTSAKDFGNLQALGIGFLTIAIILLISVFARGFMKSVSILIGILVGTLIAGAMGMVSLKPVAEASWFHLPTLFYFGTPHFEWSSILTMILVSLTTMVESTGVFFALGDITGRKIEGDDLKRGYRAEGIAVILGGLFSTFPYSTFSENVGVVQLSGVKTRKPIYFSAAFLVVLGLLPKIGALATIIPDPVLGGAMVVMFGIVGIQGIRMLAQVDFRNNNNLLVAAVSIGLGLGVTVQTNIFQFLPGALQIMLSNGVVVGSVAAVGLNLLFNRHAAENTVDDESVGLNETEQP | failed
MRRCCGDLAASRGGCEPASRNLTRTRLTFAALGRINRPAEHDREDAMTRQEARDHEPRDQDAALSRRTLVRGLALGAAATMAGPALAQTGPAAPPTTITTPPRDFGPNGAPTTYFWDPDIIAVDPSFDDLAQPNTAIKRLYTGVLWAEGPAWSAQGRYLLWSDIPNNRQMRWSEDDGRISVFRSPSNNSNGNSFDFQGRQLSCEHLTRRVTRYEHDGTATVLCDNYNGKKLNSPNDVVAHPDGSYWFTDPPYGGQLYEGEPDAAGGPSNSGGKLNPRIGQPAGFTPGKRELPTNCYRIDPSGRVDLVVTEEQVPDPNGLCFSPDFKKLYVVSTGKGPGDSGPGGKGEIFVFDVGADNKLSNQKRFSDCTIDGVKCGPDGVRCDVNGNVWASSNAGRAVGYSGVTVWSPEGKLLGRIRLPEVCGNICFGGPKRNRLFMAASQSLYAVFTATQGAGPGLEHHHHHH | not failed
ILIQINPLDNVAIVVNDHGLEKQTVIEEYQLTLVDDVPQGHKVLLKALKKDEAIIRYGEIIGYANADLEAGRWVNESVTRMPEA | failed
MRKARGIKLIAVFLVAAVVNVVFGFCVLAKAQILKKPAENSYVFDYANLIDSSDEEEMRALAKEIEDKSKAEIVVVTVETLGSYTIEEYANELFRSWEIGDKELNNGVLILVNKENLLLGKKGRIRIEVGYGLEGAITDGKAGRTLDEYAIPAFERNEYSKGIRDTFLAVASEVANEYGLKIDGLSGYGASEDVNENEVTSDGNAENVVDVPFGLGIGAGLIVGFGLFFFIIFLMVIVILYNQPYAGKKYEWTWKNGKWEKKVYVYRYDDLWKNNRSFFDDSDDSDSFGSGGGFGGFGGGSSGGGGASR | failed
GPSRMRHERVVIIKNMFHPMDFEDDPLVLNEIREDLRVECSKFGQIRKLLLFDRHPDGVASVSFRDPEEADYCIQTLDGRWFGGRQITAQAWDGTTDYQ | not failed
MARYLVVAHRTAKSPELAAKLKELLAQDPEARFVLLVPAVPPPGWVYEENEVRRRAEEEAAAAKRALEAQGIPVEEAKAGDISPLLAIEEELLAHPGAYQAIVLSTLPPGPSRWLRLDVHTQAERFGLPVIHVIAQAA | not failed
MGVVHHSVYAVYLEAARVDFLERAGLPYHRVEARGVFFPVVELGLTFRAPARFGEVVEVRTRLAELSSRALLFRYRVEREGVLLAEGFTRHLCQVGERAARIPEDIYRALSVLHLK | not failed
MAPFSSSSAEIKIARTAPFSSSAENKGNRQINGASSSASSCDAENAKSGGSRQLGKAAYMEGKHVDALQIFMWMHRKEMSFSTSEVALFVDIIGNTIGIAAAHSYLKKVDPNCDQMHNRTENWPAFVSLVKLETKLLKENGIVHATRPPK | failed
MLKRSIRLLTMGIIWFAISVANSTGRAEKSSDLERYLNTIQDPENIDKPFQPLQAGEYDQAYDYYIQGYYLKAFREALRRAEQNDPFAQTLVARIYMEGCAVPIDGARAALWFGRAAKQGEPQAQLRYGLMLFDGNFIAQNQEIGEEFIRKAVDAGVKEAYYYYGQLLLYKASREKQALAGVFSQSQENEAIDQALKWFLKGAALGDAAAAFAAAKILSLGTLTRPKDDRNARKLMEVAAQNKHLEAQILLAQWLVQGRGGETDFQRAFHLLLSNATKMIAPAQVALARLYRDGIGTKGDIVRAAAWYMLAKHAKIQAPDLEMMLEGMDHAQLEEARKEIIKLLPIF | failed
MKVLLANPRGFCAGVDRAIEIVKRTIDMLGTPIYVRHEVVHNRFVVDDLKQRGAIFVEELHQVPDGATVIFSAHGVSQAVRRQAAQRGLKVFDATCPLVTKVHLDVARHCRTGRDMILIGHAGHPEVEGTMGQWDQERGTGRIYLVENIDDVATLHVAQPHHLAYTTQTTLSVDDTRNIIDALRQRFPTIQGPKNNDICYATQNRQDAVRELARECDLVLVVGSPNSSNSNRLSELAQREGVASYLIDSAAEIDPAWVIDKHHIGVTAGASAPQVLVDGVLARLYELGATSVSEHSGKPESMVFALPKALRLQLVD | failed
MSHRSPSVTPAVSVLIPAWNAVRHLPAALDGLLSQTFQDWEAVVVDDGSQDETPALLAAYAARDARIRPLHVEHGGIVHALNHGLLHVRGRHVARMDADDTCHPERLALQCHALDNAPHLGLVASRVTFGGDAAQCGGFVRYVDWTNSLLCHEDIALGRFRESPLVHPSVMFRRELIDRFGPYANGPFPEDYELWLRWLEAGVRMEKLPEHLLVWNDPPGRLTRTHDNYAEAGFVALRTRYLARWLCAHNPQHPDVWVIGAGKASRRRARPLCEHGIRIRAWVDIDPHKIGNIVEGLPVVGREAMPAPGQGFMLAFLAGHGAAEELELFLHGAGYLPGQDYLLASLEHHHHHH | not failed
MTISSRKAALAAVLLASVAVPAAAEPVFNRIASFPVAENLPGDKDKLSQTSAEIITATDDGNTLIYSDSPLGAIGFIDITDAKAPKSGGALMMDGEPTSVTSSAGKALVAVNTSESKARPSGRLAIVDVATKKIENTCDLGGQPDSIALNKDKTLGTIAIEDERDEDVNDGNIPQMPAGDLVVFRVKNGAVDCGSIKHVTLTDLAGVVPEDPEPEFVAFNGLNEIALTLQENNEIVIIDANTAEVKTHFSAGSVDLTGIDTKRDGALKFTGESKGVLREPDAVKWLDDNRLVVANEGDYHGGSRGFTIFDKTGKLLYESGASFERAVAHIGHYPESRSESKGVEPEGLEAAKFGDDQYFFLLAERASVVGVYKDTGADPELVQLLPSGISPEGGVAIPARNLFATANELDLGKDGGVRSHVMIYERSEGEKAYPQIVSAEKDGNPIGFAALSGLAAVPGKPGMLYAVSDSVLGSQPTIYTIDATKKPAVITDRLVVKRDGAPAQKLDIEGIAAAADGSFWLASEGYSERLVPHALYNVNAKGDIRAEIALPKELTANEIRFGFEGVTIIGTGDDATLWMAVQREWGDDEKGFVKLVSYNPKKKEWGAVRYPLDKTESGWVGLSEISAHGDSVYIIERDNLVGDAAKLKKLYKVAISELKPAKLGGELPVVKKTEAHDFLGELKTATNGYVLDKLEGFTFDASGKPYAVTDNDGVSDSSGETLFFPVELSATN | failed
MKQIRMLAQYYVDLMMKLGLVRFSMLLALALVVLAIVVQMAVTMVLHGQVESIDVIRSIFFGLLITPWAVYFLSVVVEQLEESRQRLSRLVDKLEEMRERDLKLNVQLKDNIAQLNQEIGEREKAEAERETTLEQLKIEMKEREETQIQLEQQSSFLRSFLDASPDLVFYRNEDKEFSGCNRAMELLTGKSEKQLIHLKPQDVYSEEAAEKVLETDEKVFRHNVSLTYEQWLDYPDGRKACFEIRKVPYYDRVGKRRGLMGFGRDITERKRYQDALERASRDKTTFISTISHELRTPLNGIVGLSRILLDTELTSEQEKYLKTIHVSAVTLGNIFNDIIDMDKMERRKVQLDNQPVDFTSFLADLENLSGLQAQQKGLRFVLEPSLPLPHKVITDGTRLRQILWNLISNAVKFTPQGGGVNVRVRYDEGDILHFEVEDSGIGIPEAEQDKIFAMYYQVKDSHGGKPATGTGIGLAVSRRLARNMGGDISVTSQPGKGATFTLTVHAPAIAEEVEDTLAEDDMPLPALNVLLVEDIELNVIVARSVLEKLGNSVDVAMTGKAALEMFEPGEYDLVLLDIQLPDMTGLDISRELKQRFAADELPPLVALTANVLKNKKEYLDAGMDDVLSKPLSVPALTAMIKKFWDAPDEEAQEAPAADLHKADAVLDTDMLEQYIELVGPKLINDGLAVFEKMMPGYMSVLESNLTARDQKGIVEEGHKIKGAAGSIGLRHIQQLGQQIQTPDLPAWSDNVAEWVEEMKSEWQNDVAVLKAWVAKASKK | failed

— a protein production outcome set (Wang et al. 2014)
